From the RNAGym collection of RNA variant scans (doi:10.7554/elife.90254)

B1: LINE1-full (parent)
chain: UACGUAGGUGGUUUUCCCCUGAUAGUGCUAAGGGGGCCUGGAAGUUUGGACUGGGCAGAGCUCAACACAGCGUGGCAAAGUGGCUGUGGCUAGACUGCCUCUCUGGAUUCCUCGUCACUCAGCAGGGCAUCUCUGAGAGAAAUGCC

Variants of: B1
Assay: self-cleavage, relative activity (ratio to wild type); higher = more cleavage; in vitro, sequencing; the parent is a self-cleaving ribozyme
With C51U U115C the self-cleavage was 1.98. With C51U U130C the self-cleavage was 1.4. With C51U U132C the self-cleavage was 0.69. Work on C51U U134C yielded a self-cleavage of 1.74. Work on U52A yielded a self-cleavage of 1.34. Variant U52A A57G has a self-cleavage of 0.89. With U52A A57U the self-cleavage was 0.14. Work on U52A A59G yielded a self-cleavage of 0.03. U52A A59U gave a self-cleavage of 0.4. Variant U52A A64G has a self-cleavage of 0.31. Work on U52A A69U yielded a self-cleavage of 0.08. In the case of U52A A77U, the self-cleavage is reported as 1.03. In the case of U52A A78G, the self-cleavage is reported as 1.43. Variant U52A A78U has a self-cleavage of 2.37. With U52A A79U the self-cleavage was 2.26. In the case of U52A A92U, the self-cleavage is reported as 0.86. U52A A117G gave a self-cleavage of 1.43. For U52A A117U, the self-cleavage was 1.35. In the case of U52A A121U, the self-cleavage is reported as 1.03. In the case of U52A A124G, the self-cleavage is reported as 1.07. In the case of U52A A124U, the self-cleavage is reported as 1.15. In the case of U52A A129U, the self-cleavage is reported as 1.73. Work on U52A A136G yielded a self-cleavage of 1.4. Work on U52A A140U yielded a self-cleavage of 1.57. U52A A141G showed a self-cleavage of 1.11. In the case of U52A C95A, the self-cleavage is reported as 0.09. For U52A C98U, the self-cleavage was 0.12. U52A C110A gave a self-cleavage of 1.66. Variant U52A C110G has a self-cleavage of 1.15. In the case of U52A C110U, the self-cleavage is reported as 1.23. Work on U52A C113U yielded a self-cleavage of 1.41. With U52A C116U the self-cleavage was 1.18. U52A C128U showed a self-cleavage of 1.38. U52A C145U showed a self-cleavage of 1.6. Variant U52A C146A has a self-cleavage of 1.16. U52A G54C showed a self-cleavage of 0.43. U52A G55A gave a self-cleavage of 0.3. In the case of U52A G72A, the self-cleavage is reported as 1.55. In the case of U52A G75U, the self-cleavage is reported as 0.45. U52A G80C gave a self-cleavage of 0.98. Variant U52A G82A has a self-cleavage of 1.63. U52A G82U gave a self-cleavage of 1.26. For U52A G88A, the self-cleavage was 0.12. Work on U52A G106C yielded a self-cleavage of 1.84. U52A G114C showed a self-cleavage of 1.34. Variant U52A G126C has a self-cleavage of 1.81. In the case of U52A U62A, the self-cleavage is reported as 0.05. Work on U52A U62C yielded a self-cleavage of 0.04. In the case of U52A U73A, the self-cleavage is reported as 1.63. U52A U73C gave a self-cleavage of 2.24. Variant U52A U81C has a self-cleavage of 1.51. U52A U81G gave a self-cleavage of 1.63. In the case of U52A U85C, the self-cleavage is reported as 0.2. U52A U87A showed a self-cleavage of 0.08. Variant U52A U87G has a self-cleavage of 0.29. In the case of U52A U91A, the self-cleavage is reported as 0.63. U52A U96A showed a self-cleavage of 0.07. U52A U96C gave a self-cleavage of 0.15. In the case of U52A U100C, the self-cleavage is reported as 1.96. U52A U102C showed a self-cleavage of 0.88. Work on U52A U112A yielded a self-cleavage of 0.8. U52A U115A showed a self-cleavage of 1.34. Variant U52A U115C has a self-cleavage of 1.42. In the case of U52A U119A, the self-cleavage is reported as 1.47. In the case of U52A U119C, the self-cleavage is reported as 1.48. Work on U52A U130G yielded a self-cleavage of 1.24. U52A U143A showed a self-cleavage of 1.37. For U52C, the self-cleavage was 1.24. Work on U52C A59U yielded a self-cleavage of 0.72. In the case of U52C A64G, the self-cleavage is reported as 0.34. Variant U52C A64U has a self-cleavage of 0.45. U52C A65U showed a self-cleavage of 0.19. For U52C A67U, the self-cleavage was 0.16. Work on U52C A69G yielded a self-cleavage of 0.11. Work on U52C A69U yielded a self-cleavage of 0.1. For U52C A77G, the self-cleavage was 2.8. U52C A77U gave a self-cleavage of 1.07. For U52C A78U, the self-cleavage was 1.56. Work on U52C A92G yielded a self-cleavage of 0.1. Variant U52C A94G has a self-cleavage of 0.24. U52C A107G showed a self-cleavage of 1. Work on U52C A121C yielded a self-cleavage of 1.92. With U52C A121G the self-cleavage was 1.41. For U52C A129G, the self-cleavage was 1.23. U52C A138C gave a self-cleavage of 1.62. For U52C A140G, the self-cleavage was 1.1. U52C A140U showed a self-cleavage of 1.15. Work on U52C C56U yielded a self-cleavage of 0.11. For U52C C71U, the self-cleavage was 0.7. U52C C84G gave a self-cleavage of 0. U52C C95G gave a self-cleavage of 0.09. Variant U52C C98A has a self-cleavage of 0.1. In the case of U52C C99A, the self-cleavage is reported as 0.27. U52C C99U showed a self-cleavage of 0.64. For U52C C101G, the self-cleavage was 1.31. U52C C113A showed a self-cleavage of 0.99. In the case of U52C C116U, the self-cleavage is reported as 1.39. Variant U52C G53A has a self-cleavage of 0.6. Variant U52C G54A has a self-cleavage of 0.74. Work on U52C G60A yielded a self-cleavage of 0.03. For U52C G83A, the self-cleavage was 0.53. Work on U52C G88A yielded a self-cleavage of 0.04. Work on U52C G89A yielded a self-cleavage of 0.05. For U52C G105A, the self-cleavage was 1.17. Work on U52C G114A yielded a self-cleavage of 1.24. Work on U52C G139A yielded a self-cleavage of 0.78. Variant U52C U62A has a self-cleavage of 0.08. U52C U62C showed a self-cleavage of 0.03. Variant U52C U81C has a self-cleavage of 1.08. Work on U52C U81G yielded a self-cleavage of 1.31. In the case of U52C U85A, the self-cleavage is reported as 0.13. Variant U52C U85C has a self-cleavage of 0.31. With U52C U87C the self-cleavage was 0.11. In the case of U52C U91A, the self-cleavage is reported as 0.49. With U52C U91C the self-cleavage was 0.67. U52C U96A showed a self-cleavage of 0.1. Work on U52C U102A yielded a self-cleavage of 0.87. For U52C U102C, the self-cleavage was 1.14. U52C U104A showed a self-cleavage of 1.02. In the case of U52C U104C, the self-cleavage is reported as 1.1. U52C U109A showed a self-cleavage of 1.6. Work on U52C U109C yielded a self-cleavage of 0.69. Work on U52C U112C yielded a self-cleavage of 1.5. With U52C U115A the self-cleavage was 1.34. Variant U52C U119A has a self-cleavage of 1.16. Variant U52C U130A has a self-cleavage of 1.04. Work on U52C U130C yielded a self-cleavage of 1.84. Work on U52C U132C yielded a self-cleavage of 1.75. For U52C U134C, the self-cleavage was 1.01. U52C U134G showed a self-cleavage of 2.76. U52C U143A showed a self-cleavage of 1.84. Variant U52G has a self-cleavage of 1.45. U52G A57G gave a self-cleavage of 0.82. With U52G A59G the self-cleavage was 0.34. In the case of U52G A69U, the self-cleavage is reported as 0.1. Variant U52G A79G has a self-cleavage of 1.31. In the case of U52G A94U, the self-cleavage is reported as 0.42. U52G A136G gave a self-cleavage of 0.88. With U52G A136U the self-cleavage was 1.1. With U52G C118U the self-cleavage was 2.3. For U52G G70A, the self-cleavage was 0.42. Variant U52G G80C has a self-cleavage of 0.97. U52G G144A gave a self-cleavage of 1.34. In the case of U52G U73A, the self-cleavage is reported as 1.74. With U52G U85C the self-cleavage was 0.15. Work on U52G U87G yielded a self-cleavage of 0.59. For U52G U96C, the self-cleavage was 0.55. For U52G U102C, the self-cleavage was 1.87. In the case of U52G U115C, the self-cleavage is reported as 1.71. U52G U143A gave a self-cleavage of 1.32. With U52G U143C the self-cleavage was 1.99. Variant G53A has a self-cleavage of 1.32. G53A A57G showed a self-cleavage of 0.73. Work on G53A A64G yielded a self-cleavage of 0.12. In the case of G53A A67G, the self-cleavage is reported as 0.38. G53A A69U showed a self-cleavage of 0.07. Variant G53A A77G has a self-cleavage of 1.82. With G53A A107G the self-cleavage was 1.28. Variant G53A A124G has a self-cleavage of 0.77. With G53A A129G the self-cleavage was 1.4. Work on G53A A136G yielded a self-cleavage of 1.71. Work on G53A C61U yielded a self-cleavage of 0.03. Work on G53A C128U yielded a self-cleavage of 1.34. Variant G53A G126A has a self-cleavage of 1.23. Work on G53A G126U yielded a self-cleavage of 1.31. Work on G53A G135U yielded a self-cleavage of 0.82. G53A U81C gave a self-cleavage of 0.67.
